The target of assay [1] is T1, his-tagged human TIGIT (Acro Biosystems #TIT-H52H3) (human, UniProt Q495A1 22-141).
T1 construct: Bought protein; also called His-tagged-TIGIT (human); not shown: his tag
T1 sequence (looked up): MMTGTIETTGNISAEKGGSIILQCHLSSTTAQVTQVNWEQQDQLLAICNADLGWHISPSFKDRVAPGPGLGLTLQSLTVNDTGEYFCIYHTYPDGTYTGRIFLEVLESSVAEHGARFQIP
Description: SPR (Carterra LSA), antibody captured, His-TIGIT analyte.

In assay [2] the target is T2, His-tagged cynomolgus monkey TIGIT (Acro Biosystems #TIT-05223) (cynomolgus monkey, UniProt A0A7N9I9V4 89-209).
T2 construct: Bought protein; also called cyno TIGIT; cynomolgus TIGIT; not shown: His tag
The description is as above.

The target of assay [3] is T2, His-tagged cynomolgus monkey TIGIT …. Briefly: SPR (Carterra LSA), antibody captured, His-TIGIT analyte; repeat.

T2 sequence (A0A7N9I9V4 entry or part of it): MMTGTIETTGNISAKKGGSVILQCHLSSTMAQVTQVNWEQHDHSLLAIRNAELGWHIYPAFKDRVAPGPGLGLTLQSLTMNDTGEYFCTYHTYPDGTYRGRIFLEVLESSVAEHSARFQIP

B1: benchmark 22G2 (antibody, V domains shown)
VH: QVHLQESGPGLVKPSETLSLTCTVSGGSVSSGIYYWSWIRQPPGKGLEWIGYIYYSGSTNYNPSLKSRVTISVDTSKNQFSLKLSSVTAADTAVYYCARDYYVSGNYYNVDYYFFGVDVWGQGTTVTVSS
VL: EIVLTQSPATLSLSPGERATLSCRASQSVSSYLAWYQQKPGQAPRLLIYDASNRATGIPARFSGSGSGTDFTLTISSLEPEDFAVYYCQQRSNWPPLFTFGPGTKVDIK
A word on the Kd: it is the constant that tells how readily two partners part at equilibrium. Regarding B1, the Kd came to 0.202 nM in assay [1], 16.1 nM in assay [2] and 3.4 nM in assay [3].

Values taken from US20230265187A1 (published 2023).
